The series in a line: amyloid nucleation score (Sup35N fusion, yeast selection) (log enrichment); library NNK3; higher = more nucleation; inactive = no reads after selection. The method in brief: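 In psi-negative yeast, Sup35N fusions carrying peptides of 20 random codons were induced with 100 μM copper sulfate for 24 hours. The cells then grew 7 days at 30°C on medium lacking adenine and uracil, and plasmid inserts from input and output were Illumina-sequenced, excluding sequences with under 100 input reads. Nucleation score is the DiMSum log enrichment of output over input reads, centred on the mode score of non-aggregating sequences.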

± gives the uncertainty stated by the source.

In the case of HYKKYITPVQRVGCADPSHC, the amyloid nucleation score result is “inactive”. In the case of HERILATGVFEMDLGMLVFR, the amyloid nucleation score entry is “inactive”.

For the substance VIWVPVKIR, the amyloid nucleation score entry was “inactive”. The figure for GCFIGDVRMSMSCSKFLCIE is 0.381 ± 0.15. For STCLTD, the amyloid nucleation score entry was “inactive”.

With APLMTYMVMTFMWDSKELPD, the amyloid nucleation score entry was “inactive”. The value for VGFILWFGGHCGS was 0.659 ± 0.23. The entry for GFSTYRIKIVYDVNMY is “inactive”; for LSMDLPNQSLDKVSKRHSAN it is “inactive”. The value for KDTQWALYRNL was “inactive”. Turning to FSVQAIWFVMSLNRFLGKGR, the amyloid nucleation score result is “inactive”. Substance SGDNMPAWVDHMSCHKRWSG returned an amyloid nucleation score of -0.474 ± 1.1. The entry for TCSYNSGKYNFE is “inactive”; for LWDALDKDSESVIDMGQNEG it is “inactive”. For QSSCGIMQPYRQWMPYSTYG, the amyloid nucleation score result was “inactive”. Substance ACNDVIHVASSRDLMGAHPR registered an amyloid nucleation score of -0.396 ± 0.87. The value for PLIYSTLNCKRM was “inactive”. The value for HFGYSGFDYYICTRY was 0.049 ± 0.27; that for FMYSGAVSDVRLNSSGDSLG was -0.516 ± 0.96; that for QHWWSYWMFSGKRQCVVFPV was “inactive”.

RSLFHSAFEFRFLGLTECTY: the amyloid nucleation score result is “inactive”. The value for VINVT was “inactive”; that for AHGHISCLLTYTAYWYCCV was 0.502 ± 0.19; that for CNNLFFSWLKFMLIGIMGH was “inactive”. The entry for NIMVVYPFFYGFKHNWLESI is “inactive”; for WFVYALMNRLEYSKAYFPML it is “inactive”; for LAPFV it is “inactive”. The value for YSRFDWVNLVIVGHYRTLFS was “inactive”.

ATRASPMSGTYSCTFKIIFL gave an amyloid nucleation score of 2.94 ± 0.082. Regarding FLTFRPSLSTRHLFLMESHT, the amyloid nucleation score result is “inactive”. The value for CDIISMALEPQVCTEYDLQR was 1.38 ± 0.1.

For RFIEKTSKIMSPDAYPSLKY, the amyloid nucleation score result is “inactive”. The figure for VYNCAMVCPNLIFWSFATGL is 2.55 ± 0.069; for IPCLQVYFTSTPNPSWSHGH it is “inactive”; for LLKGFSCFLNR it is “inactive”.

With LDMSFSGYTRVLARSISTDA, the amyloid nucleation score is 0.474 ± 0.65. The value for EGCSVRRTTHRAQVMRVGWM was “inactive”; that for VEKAIAFGNF was “inactive”. The entry for VEWMFTEMSVCLE is “inactive”; for FIRGVSYDFIDRSIILFLEV it is “inactive”. In the case of PTGSFMLLET, the amyloid nucleation score result was “inactive”. The entry for LAVTFVHRLCWILLFWD is “inactive”; for SFIKRVRDSMSRM it is “inactive”; for GSGCVIYIL it is “inactive”. As to MMVIRQYFMVRVEPVHVSSG, the amyloid nucleation score entry was “inactive”.

As to IMVAMGW, the amyloid nucleation score entry was “inactive”. The entry for VTDEIFELSGKVTIDSAEL is “inactive”. The value for CMDKFWCVVYA was -0.416 ± 1.5; that for RNFGYIDSKLWP was “inactive”; that for NYDERCV was -0.363 ± 0.98. The figure for RSPEDFSGTCHAGRCSWVHG is -0.044 ± 0.39; for LLNDCYIRNKGLPHDERVWG it is “inactive”. Consider VAMRDERGLFNRLWLRVFV, for which the amyloid nucleation score result was “inactive”. The entry for PSLRLQTTDILHKNSNY is “inactive”; for MFSPQSNRFSSFGNNSITGH it is “inactive”; for MGKTRLADLRVYRTVWLFSR it is “inactive”.

QRVSFCIEVIGFQ had an amyloid nucleation score of -0.042 ± 0.98. For the substance NSGNSIAVAAALDKDTLQAG, the amyloid nucleation score entry is “inactive”.

For YSGSNITTHNVFNETGDWSG, the amyloid nucleation score entry was “inactive”.

For the substance QRYTFIIIGTGWTGYYRHTP, the amyloid nucleation score was -0.156 ± 0.41. Turning to INSDSSQFSYSSLGKVIGMY, the amyloid nucleation score result was “inactive”. The value for HYLHRG was “inactive”; that for FSRFIRQ was 0.677 ± 0.15. The figure for GCVLCGIPSAWRSPGASSDA is 1.05 ± 0.2. The entry for GMFARHVFMIIEPHRIIVFH is “inactive”; for QANFYPN it is “inactive”. As for PFWKLKQKWVR, the amyloid nucleation score was -1.1 ± 1.9. The entry for ARLETHCFMRRRGQF is “inactive”; for TGKLNNFFNTFRYFYLLADY it is “inactive”.

RIPKDEYTNPGRA: the amyloid nucleation score result is “inactive”. Consider GDNRFLYELFLPHLNVVSNL, for which the amyloid nucleation score result was “inactive”. TFFVLGCLINLLGMKWTGWV: the amyloid nucleation score entry is “inactive”. The figure for CFDAYIAYLSMRCWYPKNNC is 0.015 ± 0.71; for TDIAPLAGGITSSDNIVRTK it is “inactive”; for KVVVTIRTVCRKKVDVICID it is 0.071 ± 0.72. For the substance VRVSRNGSVLY, the amyloid nucleation score entry was “inactive”. The value for YMSLVRTGKNTQMVVYRLVL was “inactive”.

For the substance MEVKNSRLDSVAKYQSISFL, the amyloid nucleation score result is “inactive”. The value for SRFFGGRYSVLS was “inactive”. The entry for VMDLLK is “inactive”; for SYNHEKLK it is “inactive”; for GSVSDGTILKLFHVSDRGTW it is “inactive”. The value for IRLFAVTAYSIVTYVRFMIG was “inactive”; that for SRVFARFDEEDRDNSRKRTV was “inactive”; that for CCCRIEYHGVHGATSHSQTV was “inactive”. In the case of VRSRRLLCKNRTVVEARNVV, the amyloid nucleation score entry was “inactive”. The value for TLSDQFDMISWVSK was “inactive”; that for NCYFIQGWSSLMYSKGFNKC was “inactive”. The entry for SSMYISAPSLCYLDFGLEKW is “inactive”; for FVESSDLMRMSWFWWTGWDL it is “inactive”; for ASGDLAGSKLVSYRVATLIN it is “inactive”.

Regarding SLHYEHLAGMTCRLVLEYLI, the amyloid nucleation score entry was “inactive”. The value for LSIYYEFFLSETNFCYMLRC was 0.766 ± 0.15. The value for AFFPHELRDMFRSNLYCCYA was “inactive”. The figure for TFLRQGMNSDISYLVRFGGN is -0.057 ± 0.47; for LNADVTMLKSNGVMTIT it is “inactive”; for TEESIDVDCVILVTNCHFRC it is 0.804 ± 0.18. As for YRPRGERLRFMYCY, the amyloid nucleation score result is “inactive”. For the substance VFAARAKRY, the amyloid nucleation score result was “inactive”. As for LSDFMLVAILTV, the amyloid nucleation score entry is “inactive”.

Consider LRGTMGEV, for which the amyloid nucleation score result is “inactive”.

As to RIYGHVLSRDANFVRLWVGT, the amyloid nucleation score result is “inactive”. The value for CNCVAKDKVMLHVSRRRADF was 0.201 ± 0.72. For the substance YRFLHSEVEVAHFWLWCSSS, the amyloid nucleation score entry is “inactive”. The figure for SSFSVSVVSKGKSVRNSGSL is 0.568 ± 0.33.

In the case of SMFMLCVSADGEFFNCGTNH, the amyloid nucleation score entry was “inactive”. Take TWVILCKNSWFMLI: the amyloid nucleation score result is “inactive”. The value for CFFINRRTLKGLT was “inactive”; that for NPMGWGQLTGCFHYVAMFCS was “inactive”.

Take CVFRYLVHHERMSYILNAGC: the amyloid nucleation score entry is “inactive”. The value for YRANINRVLVFQLN was 1.44 ± 0.086; that for RQLMRSDPAMGTICERY was “inactive”; that for QLLVF was -1.23 ± 1.9. The value for RFKCSTNGCRTFRGHHYNVK was “inactive”; that for YMSFFIFIPIFLCVNLDRVC was 2.38 ± 0.061; that for LHKTTMYFRKISLRRFEMLL was “inactive”.

On to LVYNTDQSTRYAMTDYDADL, for which the amyloid nucleation score entry is “inactive”. The figure for YHLFLDVVFFHSTKDESRKN is 0.187 ± 0.6; for VKSFCCFGWVLSP it is “inactive”; for LIIHIFLVWDWSSIERRSIS it is “inactive”. The value for NWQYLNG was “inactive”; that for DLAINGSAAQTVVLRAERSY was “inactive”; that for QSKFFGQWFLRQND was 0.299 ± 0.21. As for ANNLAFSRGG, the amyloid nucleation score was -0.977 ± 1.5. The value for MGWALIGSQSPYVCHNMFVR was “inactive”; that for YYRFLQWSGGNLWTPRWAPC was “inactive”. The entry for IAFGVLVDDSDCCIDTYEEE is “inactive”; for NIMVDHS it is -0.476 ± 1.4.

Regarding RRLSSHLFMLWYMVR, the amyloid nucleation score result was “inactive”.

With SSWFNGSLTVRQLIQRGRLF, the amyloid nucleation score result is “inactive”.

Regarding MFLQSGDFPM, the amyloid nucleation score entry is “inactive”.

For CSGISSNGGLLTLGCCFCRG, the amyloid nucleation score stood at 2.96 ± 0.076.

For the origin of these results see the supplement of paper PMC12042874.
